Among the data in patent publication US20110207221 are activity (% cells with deletion) values, retold here.

Holding throughout (assay): cell_activity
Data set [1] has as its system ZFN 16245 (POU5F1) (synthetic). To be noted: K562; two ZFN pairs co-transfected, deletion only with both.
In data set [2] the test system is ZFN 11177 (BAK del. B) (synthetic). The note with it: CHO-K1; BAK deletion B, two ZFN pairs.
The subject of data set [3] is ZFN 10344 (BAK) (synthetic). The note with it: CHO-K1; BAK deletion, two ZFN pairs.
Data set [4] has as its system ZFN 16248 (POU5F1) (synthetic). To be noted: K562; two ZFN pairs co-transfected.
Data set [5] has as its system ZFN 16247 (POU5F1) (synthetic). To be noted: K562; two ZFN pairs co-transfected.
The subject of data set [6] is ZFN 11183 (BAK) (synthetic). To be noted: CHO-K1; BAK deletion, two ZFN pairs.
Data set [7] deals with ZFN 10311 (BAK) (synthetic). The note with it: CHO-K1; BAK deletion, two ZFN pairs.
Data set [8] deals with ZFN 10317 (BAK del. A) (synthetic). The note with it: CHO-K1; BAK deletion A, two ZFN pairs.
The subject of data set [9] is ZFN 10342 (BAK) (synthetic). To be noted: CHO-K1; BAK deletion, two ZFN pairs.
Data set [10] has as its system ZFN 16246 (POU5F1) (synthetic). To be noted: K562; two ZFN pairs co-transfected.

In data set [1], “AAGCTGGTCTGGTGGCTAGGTAGATCCT (double strand) [POU5F1 site of 16245]” displayed an activity (% cells with deletion) of 4.

In turn, “AGGATTAGGAGGATGGGATTTGGCACTG (double strand) [BAK site of 11177]” had an activity (% cells with deletion) in data set [2] of 1.

“ATCAGGAAGAGGCTGGGTGTCACAGCGT (double strand) [BAK site of 10344]” registered an activity (% cells with deletion) in data set [3] of 1.

As to “ATGAGTCAGTGAACAGGGAATGGGTGAA (double strand) [POU5F1 site of 16248]”, the activity (% cells with deletion) in data set [4] amounted to 4.

With “ATGTAACAAAGGACTACTCTTCCCCCAG (double strand) [POU5F1 site of 16247]”, the activity (% cells with deletion) in [5] came to 4.

In turn, “CACGGGCCCAGGGTGGGGCAGAAAGCCC (double strand) [BAK site of 11183]” showed an activity (% cells with deletion) in [6] of 1.

Regarding “CAGCACGGGCCCAGGGTGGGGCAGAAAG (double strand) [BAK site of 10311]”, the activity (% cells with deletion) in data set [7] stood at 1.

Turning to “GCCAGGATTAGGAGGATGGGATTTGGCA (double strand) [BAK site of 10317]”, in data set [8], the activity (% cells with deletion) turned out to be 1.

With “GCGGCCAGGCCAAGGCAGACTTTCTGAC (double strand) [BAK site of 10342]”, the activity (% cells with deletion) in data set [9] amounted to 1.

In turn, “GGGCTCTGGAAGGCCCACTTCAGGGCCT (double strand) [POU5F1 site of 16246]” returned an activity (% cells with deletion) in [10] of 4.
